The DeepSol protein solubility set

Test: soluble on expression in E. coli; label from the status in PepcDB or PDB records

Row | Sequence | soluble on expression in E. coli
1 | MTELKNDRYLRALLRQPVDVTPVWMMRQAGRYLPEYKATRAQAGDFMSLCKNAELACEVTLQPLRRYPLDAAILFSDILTVPDAMGLGLYFEAGEGPRFTSPVTCKADVDKLPIPDPEDELGYVMNAVRTIRHELKGEVPLIGFSGSPWTLATYMVEGGSSKAFTVIKKMMYADPQALHALLDKLAKSVTLYLNAQIKAGAQAVMIFDTWGGVLTGRDYQQFSLYYMHKIVDGLLRENDGRRVPVTLFTKGGGQWLEAMAETGCDALGLDWTTDIADARRRVGNKVALQGNMDPSMLYAPPARIEEEVATILAGFGHGEGHVFNLGHGIHQDVPPEHAGVFVEAVHRLSEQYHR | soluble
2 | MTELPLQFAEPDDDLERVRATLYSLDPDGDRTAGVLRDTLDQLYDGQRTGRWNFDQLHKTEKTHMGTLVEINLHREFQFGDGFETDYEIAGVQVDCKFSMSQGAWMLPPESIGHICLVIWASDQQCAWTAGLVKVIPQFLGTANRDLKRRLTPEGRAQVVKLWPDHGKLQENLLLHIPGDVRDQIFSAKSSRGNQHGQARVNELFRRVHGRLIGRAVIATVAQQDDFMKRVRGSGGARSILRPEGIIILGHQDNDPKVANDLGLPVPRKGQVVAARVVPADEGDQRQTAEIQGRRWAVAVPGDPIVEAPVVPRKSAE | soluble
3 | MTENLLAERHALRWVFLYEFPQICNCNEARRNMCAVLGKNSVTYNTMKFWFEKFTKKNYDLDDKPR | soluble
4 | MTERFFAPCPRGLETVLAAELERLDATSIQASPGGVGFHGNWQTCYRANLESRIASRILWQIAKDQYRSEADIYDLTHSLPWQDWFEPRLSIKVNLAAIKCPLRSLDFVTLRIKDAVCDKFRAIHGKRPDIDTVAPDMRIHGFLNAQEFTLYLDTSGEALFKRGLRQTQGEAPLRENLAAGILALTGWQPGTPLLDPMCGSGTLLLEAAQIACRIAPGSGRQFAFEQLKLFDARSWKKLKQTATERQHERTFQSIYGSDLYGSALAHTRNNLAAAGLAECVTLKQANVLEISAPAETGILVSNPPYGVRIGDHQMLAEFYPRLGDVLKQRFSGWRAFLLTADPLLAKSIRLTPSRRTPLFNGALECRLLEYRLVAGSMRREKQPSSESSTNQPIT | not soluble
5 | MTERLKVMTIFGTRPEAIKMAPLVLELQKHPEKIESIVTVTAQHRQMLDQVLSIFGITPDFDLNIMKDRQTLIDITTRGLEGLDKVMKEAKPDIVLVHGDTTTTFIASLAAFYNQIPVGHVEAGLRTWDKYSPYPEEMNRQLTGVMADLHFSPTAKSATNLQKENKDESRIFITGNTAIDALKTTVKETYSHPVLEKLGNNRLVLMTAHRRENLGEPMRNMFRAIKRLVDKHEDVQVVYPVHMNPVVRETANDILGDYGRIHLIEPLDVIDFHNVAARSYLMLTDSGGVQEEAPSLGVPVLVLRDTTERPEGIEAGTLKLAGTDEETIFSLADELLSDKEAHDKMSKASNPYGDGRASERIVEAILKHFNK | not soluble
6 | MTERLLVGVIVGSHGVRGLVRVKSFTQDEMALCDYGPLSDETGTRRFAVEVRNQAKGVVICQIPGVSDRTAADALKGTRLFLDRAALPADALEEDEYYHADLIGLPVDLVDGGRLGVVHSVHDFGAGDMLEVTLAQGRRSVLLPFTKAVVPLVDVKAGRLVADPPLGLLDDTRPPAGVEGEVEEDPGVGIDEDGDGKGGASLEHHHHHH | soluble
7 | MTESDDHKLVLAISSRALFDLRDSHAVYMAEGVEAYRKYQIEHEDEILERGDAFTLVEKLLNLNASLSKARVEVVLVSRNSADTGLRVFNSIQHYGLDIARAAFAGGRSPYPYLAAFGCHLFLSTHAEDVRSALDAGFAAATILSGGARRAASAELRIAFDGDAVLFSDESERVYQSGGLAAFQASERESAREPLRGGPFKPFLAALNQLQREFPDASCPIRTALVTARSAPAHERVIRTLREWDIRLDESLFLGGLQKSAFLEAFAADVFFDDQPGHCEKAREVVATGHVPHGISNEIIPFDGGGAAALEHHHHHH | not soluble
8 | MTESVARLRGEQLTLGYGKYTVAENLTVEIPDGHFTAIIGPNGCGKSTLLRTLSRLMTPAHGHVWLDGEHIQHYASKEVARRIGLLAQNATTLGDITVQELVARGRYPHQPLFTRWRKEDEEAVTKAMQATGITHLADQSVDTLSGGQRQRAWIAMVLAQETAIMLLDEPTTWLDISHQIDLLELLSELNREKGYTLAAVLHDLNQACRYASHLIALREGKIVAQGAPKEIVTAELIERIYGLRCMIIDDPVAGTPLVVPLGRTAPSTANS | not soluble
